Data on one protein can be found in ChEMBL document CHEMBL1142204, “Cathepsin A is the major hydrolase catalyzing the intracellular hydrolysis of the antiretroviral nucleotide phosphonoamidate prodrugs GS-7340 and GS-9131” (Antimicrob Agents Chemother, 2007).

Substrate in series [1]: CC(C)OC(=O)[C@H](C)N[P@](=O)(CO[C@H](C)Cn1cnc2c(N)ncnc21)Oc1ccccc1
Nature of the series: Activity of Cat A assessed as hydrolysis. The following applies: Homo sapiens.

Substrate in series [2]: CC(C)OC(=O)[C@H](C)N[P@](=O)(CO[C@H](C)Cn1cnc2c(N)ncnc21)Oc1ccccc1
Nature of the series: Ratio of kcat to Km for Cat A activity. The conditions noted are these: Homo sapiens.

B1: Lysosomal protective protein (Homo sapiens), P10619 (protein)
chain: MIRAAPPPLFLLLLLLLLLVSWASRGEAAPDQDEIQRLPGLAKQPSFRQYSGYLKGSGSKHLHYWFVESQKDPENSPVVLWLNGGPGCSSLDGLLTEHGPFLVQPDGVTLEYNPYSWNLIANVLYLESPAGVGFSYSDDKFYATNDTEVAQSNFEALQDFFRLFPEYKNNKLFLTGESYAGIYIPTLAVLVMQDPSMNLQGLAVGNGLSSYEQNDNSLVYFAYYHGLLGNRLWSSLQTHCCSQNKCNFYDNKDLECVTNLQEVARIVGNSGLNIYNLYAPCAGGVPSHFRYEKDTVVVQDLGNIFTRLPLKRMWHQALLRSGDKVRMDPPCTNTTAASTYLNNPYVRKALNIPEQLPQWDMCNFLVNLQYRRLYRSMNSQYLKLLSSQKYQILLYNGDVDMACNFMGDEWFVDSLNQKMEVQRRPWLVKYGDSGEQIAGFVKEFSHIAFLTIKGAGHMVPTDKPLAAFTMFSRFLNKQPY
As for B1, the Km in series [1] amounted to 610 µM. Further, the kcat/Km in series [2] came out at 2.9e+06 M⁻¹ s⁻¹.
